Km data for one substance are collected here from publication PMC9968969.

The test system of the series is [H][C@@]12COP(=O)(O)O[C@@]1([H])[C@@H](O)[C@H](n1cnc3c(=O)[nH]c(N)nc31)O2. The experiment in a line: purified protein. Particulars: […] MgCl2 in the reaction buffer catalytic site.

PDE5A (Homo sapiens): the Km turned out to be 3.87 ± 0.12 µM.
